Data: IntAct's records for PubMed 31515488

B1: Syntenin-1 (Homo sapiens), O00560 (parent)
chain: MSLYPSLEDLKVDKVIQAQTAFSANPANPAILSEASAPIPHDGNLYPRLYPELSQYMGLSLNEEEIRANVAVVSGAPLQGQLVARPSSINYMVAPVTGNDVGIRRAEIKQGIREVILCKDQDGKIGLRLKSIDNGIFVQLVQANSPASLVGLRFGDQVLQINGENCAGWSSDKAHKVLKQAFGEKITMTIRDRPFERTITMHKDSTGHVGFIFKNGKITSIVKDSSAARNGLLTEHNICEINGQNVIGLKDSQIADILSTSGTVVTITIMPAFIFEHIIKRMAPSIMKSLMDHTIPEV
partner: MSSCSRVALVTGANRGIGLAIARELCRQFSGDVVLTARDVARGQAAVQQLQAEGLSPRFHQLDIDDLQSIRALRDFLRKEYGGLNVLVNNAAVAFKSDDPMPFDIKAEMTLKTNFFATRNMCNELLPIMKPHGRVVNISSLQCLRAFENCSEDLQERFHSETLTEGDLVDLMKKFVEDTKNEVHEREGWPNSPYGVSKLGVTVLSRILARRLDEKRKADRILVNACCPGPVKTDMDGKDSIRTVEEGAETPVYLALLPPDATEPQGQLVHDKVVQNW
B2: Notch homolog 2 N-terminal-like protein A (Homo sapiens), Q7Z3S9 (parent)
chain: MCVTYHNGTGYCKCPEGFLGEYCQHRDPCEKNRCQNGGTCVAQAMLGKATCRCASGFTGEDCQYSTSHPCFVSRPCLNGGTCHMLSRDTYECTCQVGFTGKECQWTDACLSHPCANGSTCTTVANQFSCKCLTGFTGQKCETDVNECDIPGHCQHGGTCLNLPGSYQCQCLQGFTGQYCDSLYVPCAPSPCVNGGTCRQTGDFTFECNCLPETVRRGTELWERDREVWNGKEHDEN
partner: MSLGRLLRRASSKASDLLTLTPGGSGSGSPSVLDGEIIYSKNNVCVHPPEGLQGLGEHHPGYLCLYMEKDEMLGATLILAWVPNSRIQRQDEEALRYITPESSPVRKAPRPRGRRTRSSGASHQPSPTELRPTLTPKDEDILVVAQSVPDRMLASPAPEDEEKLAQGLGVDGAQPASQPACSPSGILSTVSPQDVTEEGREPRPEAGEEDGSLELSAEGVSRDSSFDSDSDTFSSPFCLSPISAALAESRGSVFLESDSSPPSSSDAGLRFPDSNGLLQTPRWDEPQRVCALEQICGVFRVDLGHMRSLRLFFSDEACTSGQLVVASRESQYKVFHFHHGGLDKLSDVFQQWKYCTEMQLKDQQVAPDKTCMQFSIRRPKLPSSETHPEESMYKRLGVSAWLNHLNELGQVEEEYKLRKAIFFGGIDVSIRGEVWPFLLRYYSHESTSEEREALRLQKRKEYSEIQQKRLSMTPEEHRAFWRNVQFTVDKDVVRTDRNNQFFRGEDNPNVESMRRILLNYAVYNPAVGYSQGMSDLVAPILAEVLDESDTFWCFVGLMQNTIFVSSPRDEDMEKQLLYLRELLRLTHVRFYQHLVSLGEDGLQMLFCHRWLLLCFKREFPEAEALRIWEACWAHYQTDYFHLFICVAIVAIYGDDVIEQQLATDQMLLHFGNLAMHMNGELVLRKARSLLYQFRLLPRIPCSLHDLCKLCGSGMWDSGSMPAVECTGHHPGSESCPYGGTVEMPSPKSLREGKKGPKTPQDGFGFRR
B3: Keratin, type I cytoskeletal 18 (Homo sapiens), P05783 (parent)
chain: MSFTTRSTFSTNYRSLGSVQAPSYGARPVSSAASVYAGAGGSGSRISVSRSTSFRGGMGSGGLATGIAGGLAGMGGIQNEKETMQSLNDRLASYLDRVRSLETENRRLESKIREHLEKKGPQVRDWSHYFKIIEDLRAQIFANTVDNARIVLQIDNARLAADDFRVKYETELAMRQSVENDIHGLRKVIDDTNITRLQLETEIEALKEELLFMKKNHEEEVKGLQAQIASSGLTVEVDAPKSQDLAKIMADIRAQYDELARKNREELDKYWSQQIEESTTVVTTQSAEVGAAETTLTELRRTVQSLEIDLDSMRNLKASLENSLREVEARYALQMEQLNGILLHLESELAQTRAEGQRQAQEYEALLNIKVKLEAEIATYRRLLEDGEDFNLGDALDSSNSMQTIQKTTTRRIVDGKVVSETNDTKVLRH
partner: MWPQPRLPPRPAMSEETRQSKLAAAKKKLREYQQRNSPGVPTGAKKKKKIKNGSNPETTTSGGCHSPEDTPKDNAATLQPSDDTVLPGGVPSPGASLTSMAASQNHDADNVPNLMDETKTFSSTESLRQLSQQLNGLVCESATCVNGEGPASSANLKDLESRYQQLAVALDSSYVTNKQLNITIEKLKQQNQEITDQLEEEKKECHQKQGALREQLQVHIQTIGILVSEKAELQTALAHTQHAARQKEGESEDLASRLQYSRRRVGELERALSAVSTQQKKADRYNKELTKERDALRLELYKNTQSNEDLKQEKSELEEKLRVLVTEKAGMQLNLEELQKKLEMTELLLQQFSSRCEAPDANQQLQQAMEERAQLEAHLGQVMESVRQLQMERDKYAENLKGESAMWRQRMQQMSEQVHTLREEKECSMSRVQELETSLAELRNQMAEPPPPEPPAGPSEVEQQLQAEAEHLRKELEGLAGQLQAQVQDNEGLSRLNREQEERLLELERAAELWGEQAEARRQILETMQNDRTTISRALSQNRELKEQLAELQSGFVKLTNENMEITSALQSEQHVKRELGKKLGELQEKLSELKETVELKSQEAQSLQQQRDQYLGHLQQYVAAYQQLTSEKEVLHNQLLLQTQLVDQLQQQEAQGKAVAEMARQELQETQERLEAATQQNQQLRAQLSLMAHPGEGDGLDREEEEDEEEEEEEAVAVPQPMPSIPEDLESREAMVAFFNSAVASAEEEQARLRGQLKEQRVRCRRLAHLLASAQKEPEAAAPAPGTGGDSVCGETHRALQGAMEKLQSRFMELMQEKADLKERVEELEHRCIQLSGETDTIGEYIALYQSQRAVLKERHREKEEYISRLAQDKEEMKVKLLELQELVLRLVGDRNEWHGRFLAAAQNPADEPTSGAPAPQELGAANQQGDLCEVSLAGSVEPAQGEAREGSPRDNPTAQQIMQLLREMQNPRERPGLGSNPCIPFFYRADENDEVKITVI
B4: Dickkopf-related protein 1 (Homo sapiens), O94907 (parent)
chain: MMALGAAGATRVFVAMVAAALGGHPLLGVSATLNSVLNSNAIKNLPPPLGGAAGHPGSAVSAAPGILYPGGNKYQTIDNYQPYPCAEDEECGTDEYCASPTRGGDAGVQICLACRKRRKRCMRHAMCCPGNYCKNGICVSSDQNHFRGEIEETITESFGNDHSTLDGYSRRTTLSSKMYHTKGQEGSVCLRSSDCASGLCCARHFWSKICKPVLKEGQVCTKHRRKGSHGLEIFQRCYCGEGLSCRIQKDHHQASNSSRLHTCQRH
B5: MTRF1L release factor glutamine methyltransferase (Homo sapiens), Q9Y5R4 (parent)
chain: MELWGRMLWALLSGPGRRGSTRGWAFSSWQPQPPLAGLSSAIELVSHWTGVFEKRGIPEARESSEYIVAHVLGAKTFQSLRPALWTQPLTSQQLQCIRELSSRRLQRMPVQYILGEWDFQGLSLRMVPPVFIPRPETEELVEWVLEEVAQRSHAVGSPGSPLILEVGCGSGAISLSLLSQLPQSRVIAVDKREAAISLTHENAQRLRLQDRIWIIHLDMTSERSWTHLPWGPMDLIVSNPPYVFHQDMEQLAPEIRSYEDPAALDGGEEGMDIITHILALAPRLLKDSGSIFLEVDPRHPELVSSWLQSRPDLYLNLVAVRRDFCGRPRFLHIRRSGP
partner: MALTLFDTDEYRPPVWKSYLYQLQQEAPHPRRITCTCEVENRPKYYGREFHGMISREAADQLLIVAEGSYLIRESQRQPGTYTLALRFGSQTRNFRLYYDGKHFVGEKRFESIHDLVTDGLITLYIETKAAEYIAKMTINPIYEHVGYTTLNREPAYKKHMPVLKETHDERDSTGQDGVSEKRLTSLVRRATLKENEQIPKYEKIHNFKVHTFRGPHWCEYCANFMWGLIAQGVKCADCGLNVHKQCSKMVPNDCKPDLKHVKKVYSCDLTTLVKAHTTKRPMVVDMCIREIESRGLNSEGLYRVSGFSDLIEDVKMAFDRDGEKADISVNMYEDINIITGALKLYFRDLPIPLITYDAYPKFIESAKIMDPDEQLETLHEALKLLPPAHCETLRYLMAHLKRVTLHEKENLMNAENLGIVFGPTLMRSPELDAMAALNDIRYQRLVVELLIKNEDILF
B6: "tRNA (guanine-N(7)-)-methyltransferase non-catalytic subunit WDR4" (Homo sapiens), P57081 (parent)
chain: MAGSVGLALCGQTLVVRGGSRFLATSIASSDDDSLFIYDCSAAEKKSQENKGEDAPLDQGSGAILASTFSKSGSYFALTDDSKRLILFRTKPWQCLSVRTVARRCTALTFIASEEKVLVADKSGDVYSFSVLEPHGCGRLELGHLSMLLDVAVSPDDRFILTADRDEKIRVSWAAAPHSIESFCLGHTEFVSRISVVPTQPGLLLSSSGDGTLRLWEYRSGRQLHCCHLASLQELVDPQAPQKFAASRIAFWCQENCVALLCDGTPVVYIFQLDARRQQLVYRQQLAFQHQVWDVAFEETQGLWVLQDCQEAPLVLYRPVGDQWQSVPESTVLKKVSGVLRGNWAMLEGSAGADASFSSLYKATFDNVTSYLKKKEERLQQQLEKKQRRRSPPPGPDGHAKKMRPGEATLSC
partner: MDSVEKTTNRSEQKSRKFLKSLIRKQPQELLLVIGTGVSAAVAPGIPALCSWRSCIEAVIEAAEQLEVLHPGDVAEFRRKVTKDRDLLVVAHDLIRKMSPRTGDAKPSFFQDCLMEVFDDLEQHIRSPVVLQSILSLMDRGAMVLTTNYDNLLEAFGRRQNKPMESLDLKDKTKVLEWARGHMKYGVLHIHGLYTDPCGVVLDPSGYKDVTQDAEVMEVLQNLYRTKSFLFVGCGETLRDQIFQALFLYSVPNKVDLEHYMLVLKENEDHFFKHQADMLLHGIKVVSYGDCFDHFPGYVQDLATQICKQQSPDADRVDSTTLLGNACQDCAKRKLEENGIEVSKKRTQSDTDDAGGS
B7: Cell division cycle 7-related protein kinase (Homo sapiens), O00311 (parent)
chain: MEASLGIQMDEPMAFSPQRDRFQAEGSLKKNEQNFKLAGVKKDIEKLYEAVPQLSNVFKIEDKIGEGTFSSVYLATAQLQVGPEEKIALKHLIPTSHPIRIAAELQCLTVAGGQDNVMGVKYCFRKNDHVVIAMPYLEHESFLDILNSLSFQEVREYMLNLFKALKRIHQFGIVHRDVKPSNFLYNRRLKKYALVDFGLAQGTHDTKIELLKFVQSEAQQERCSQNKSHIITGNKIPLSGPVPKELDQQSTTKASVKRPYTNAQIQIKQGKDGKEGSVGLSVQRSVFGERNFNIHSSISHESPAVKLMKQSKTVDVLSRKLATKKKAISTKVMNSAVMRKTASSCPASLTCDCYATDKVCSICLSRRQQVAPRAGTPGFRAPEVLTKCPNQTTAIDMWSAGVIFLSLLSGRYPFYKASDDLTALAQIMTIRGSRETIQAAKTFGKSILCSKEVPAQDLRKLCERLRGMDSSTPKLTSDIQGHASHQPAISEKTDHKASCLVQTPPGQYSGNSFKKGDSNSCEHCFDEYNTNLEGWNEVPDEAYDLLDKLLDLNPASRITAEEALLHPFFKDMSL
partner: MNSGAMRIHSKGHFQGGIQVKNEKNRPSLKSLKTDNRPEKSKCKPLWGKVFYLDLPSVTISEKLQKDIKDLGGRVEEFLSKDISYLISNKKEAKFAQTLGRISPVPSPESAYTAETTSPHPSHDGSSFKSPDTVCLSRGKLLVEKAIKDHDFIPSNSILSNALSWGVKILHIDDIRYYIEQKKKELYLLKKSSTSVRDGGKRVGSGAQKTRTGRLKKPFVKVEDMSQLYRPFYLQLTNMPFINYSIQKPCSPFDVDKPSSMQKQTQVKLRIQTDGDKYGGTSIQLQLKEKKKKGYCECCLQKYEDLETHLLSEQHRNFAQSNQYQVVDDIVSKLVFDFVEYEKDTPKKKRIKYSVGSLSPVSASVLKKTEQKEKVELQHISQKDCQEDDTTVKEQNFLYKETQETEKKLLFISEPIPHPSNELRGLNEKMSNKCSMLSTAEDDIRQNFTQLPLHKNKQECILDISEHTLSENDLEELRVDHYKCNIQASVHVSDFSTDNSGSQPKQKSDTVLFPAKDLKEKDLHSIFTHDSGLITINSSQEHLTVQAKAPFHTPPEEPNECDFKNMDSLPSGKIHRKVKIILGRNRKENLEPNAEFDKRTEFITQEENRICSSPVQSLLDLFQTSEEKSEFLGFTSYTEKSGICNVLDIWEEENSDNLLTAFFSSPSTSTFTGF

Variants of: B1
Details: with cbr3_human CBR3, O75828

Variant | effect of a mutation on the interaction
K124R | with no effect

Variants of: B2
Details: with tbc16_human TBC1D16, Q8TBP0

Variant | effect of a mutation on the interaction
R74Q | with no effect
A115T | with no effect

Variants of: B3
Details: with goga2_human GOLGA2, Q08379

Variant | effect of a mutation on the interaction
S230T | with no effect
R158H | with no effect

Variants of: B4
Details: with kr101_human KRTAP10-1, P60331
kr101_human KRTAP10-1, P60331, sequence (P60331 whole entry): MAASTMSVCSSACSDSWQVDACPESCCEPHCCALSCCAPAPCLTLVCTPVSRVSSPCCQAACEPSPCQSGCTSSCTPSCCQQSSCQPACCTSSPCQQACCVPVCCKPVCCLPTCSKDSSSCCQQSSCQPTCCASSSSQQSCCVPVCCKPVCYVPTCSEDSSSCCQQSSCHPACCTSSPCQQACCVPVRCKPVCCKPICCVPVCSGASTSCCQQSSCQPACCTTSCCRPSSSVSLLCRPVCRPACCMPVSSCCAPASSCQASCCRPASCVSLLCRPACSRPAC

Variant | effect of a mutation on the interaction
S207Y | with no effect

Variants of: B4
Details: with mdfi_human MDFI

Variant | effect of a mutation on the interaction
S207Y | with no effect

Variants of: B5
Details: with chin_human CHN1, P15882

Variant | effect of a mutation on the interaction
H200Q | disrupting interaction strength

Variants of: B6
Details: with FAM118A

Variant | effect of a mutation on the interaction
A275T | with no effect

Variants of: B7
Details: with dbf4a_human DBF4, Q9UBU7

Variant | effect of a mutation on the interaction
I99L | with no effect
I99T | with no effect
K416T | with no effect
